The source of these data is the DeepSol protein solubility set.

This data set can be described thus: soluble on expression in E. coli; label from the status in PepcDB or PDB records.
Consider “MKNMLPAYIKIHDQIKKDIDEYRWAIGERLPSERDLAEQFAVSRMTLRQAVSLLVEEGVLERRVGSGTFVSSTRVQEKMRGTTSFTEIVKSQGKVPSSQLISYKKTIPNEQEVAKLGIFPTDNIIRMERVRYADQVPLVYEVASIPEKFIKDFKKEEITSHFFQTLQKHGYRIGKSQQTIYARLAKEKIAHYLEVEKGHAILGLTQVSYLEDGTAFEYVKSQYVGERFEFYLENN”, for which the “soluble on expression in E. coli” value is reported as “not soluble”. For “MAHHHHHHMTNFETFQQFYVRDWTPKARPVDAAASVVAPCDGQVLAVNANVESTSLVQVKGLTYGMRSLLQDTPPPLNTDTHRRVAVVLHMRNKDFHHVIAPLSFACEKSIYVPGSLLPTTSAGYHWIPAVLALNERLILQGRSSDKARLPVYMALVGSTLTGRITLYMDKRVRTNYLDPPAYAVHSPYASKPVVARGERLATFNWGSSVVLVMDVPKSCKPLKRPGDVVKAGEALFQF” the value was “not soluble”; for “MIKFMSIASGSSGNCYYLSNGNQALLIDAGIPLRSISKALKDHQLPIEGNVVGVLVTHDHADHIRTIGCLGEKFHLPVFATERVHNGINSSRYMDHLPLLSRRNILQEETFRLAGFDITAFPIPHDATENVGYHITAPGFSFTLCTDVGHITDTISHYASKADYLVMEANYDCEMLLSGPYPEFLKERVSGPNGHLSNQETGDFLARTFHPGMKHVWLCHLSKDNNHPDLCWKSIEYRLFSEGIRVGKDMELTVLKRTSPSSLYTLLEDLEHHHHHH”, “soluble”. For “AHHHHHHGSIKLRDELGTATTDSAQKILLLGSGELGKEIAIEAQRLGVEVVAVDRYANAPAMQVAHRSYVGNMMDKDFLWSVVEREKPDAIIPEIEAINLDALFEFEKEGYFVVPNAKATWIAMHRERLRETLVKEAKVPTSRYMYATTLDELYEACEKIGYPCHTKAIMSSSGKGSYFVRGPEDIPKAWEEAKTKARGSAEKIIVEEHIDFDVEITELAVRHFDENGEIVTTFPKPVGHYQIDGDYHASWQPAEISEKAEREVYRIAKRITDVLGGLGLFGVEMFVKGDKVWANEVSPRPHDTGMVTLASHPPGFSEFGLHLRAVLGLPIPGEWVDGYRLFPMLIPAATHVIKAKVSGYSPRFRGLAKALSVPNATIRLFGKPEAYPGRRLGVVLAWDKDVQEAKKRAEMVAHMIELRTRSSDWHSQDYEKRKHLL”, the “soluble on expression in E. coli” value is on record as “soluble”. For “PEQEEEILGSDDDEQEDPNDYCKGGYHLVKIGDLFNGRYHVIRKLGWGHFSTVWLSWDIQGKKFVAMKVVKSAEHYTETALDEIRLLKSVRNSDPNDPNREMVVQLLDDFKISGVNGTHICMVFEVLGHHLLKWIIKSNYQGLPLPCVKKIIQQVLQGLDYLHTKCRIIHTDIKPENILLSVNEQYIRRLAAEATEWQRSGAPPPSGSAVSTAPATAGNFLVNPLEPKNAEKLKVKIADLGNACWVHKHFTEDIQTRQYRSLEVLIGSGYNTPADIWSTACMAFELATGDYLFEPHSGEEYTRDEDHIALIIELLGKVPRKLIVAGKYSKEFFTKKGDLKHITKLKPWGLFEVLVEKYEWSQEEAAGFTDFLLPMLELIPEKRATAAECLRHPWLNS” the value was “soluble”; for “NKLAQKYDHQREQELREWIEGVTGRRIGNNFMDGLKDGIILCEFINKLQPGSVKKINESTQNWHQLENIGNFIKAITKYGVKPHDIFEANDLFENTNHTQVQSTLLALASMAKTKGNKVNVGV”, “soluble”. In the case of “MGSDKIHHHHHHMKKYLLYMVQVHLNFRRAELESLADLYNLSIDFSQYDANSPFFIVELENDQQAKDWIKRSILTRGIYEYWGQGTTLDELHKDIQRQSNFEQDLQLKFKHSTFKFEFECYKGNSKAKRVEQIETFRYLGFEGKIDMKHPQEVFTVIEEYTPISENVGGKTPTRIYFGRQVQMSNRSAMEKYDLKKRPYKGTTSFEAELSLVSANIAQVKPGTIMYDPFAGTGSFLVAGGHFGSLVIGSDIDGRMIRGKGAQVNISANFKKYGESSQFLDVLTMDFTNNALRNNLVIDTILCDPPYGIRESIKVLGAKDPERFLGKEDMEIDGEKAYLRRDYIPTKKPYALDSLLDDLLQYSSERLPIGGRLAFWMPTANDANIETIVPMHENLELKYNCVQEFNKWSRRLLVYINRGSTFNGSSNHGIKRSKDNFRERYFNNFN”, the “soluble on expression in E. coli” value is recorded as “not soluble”. For “MQLNKVLKGLMLALPVLAVAACSSNKSANNDQSGMGAGTGTENGSNLSSEEQARLQMQELQKNNIVYFGFDKYDIGSDFAQMLDAHAAFLRSNPSDKVVVEGHADERGTPEYNIALGERRASAVKMYLQGKGVSADQISIVSYGKEKPAVLGHDEAAFAKNRRAVLVY” the value was “not soluble”. The result for “MGSDKIHHHHHHMKELIRKLTEAFGPSGREEEVRSIILEELEGHIDGHRIDGLGNLIVWKGSGEKKVILDAHIDEIGVVVTNVDDKGFLTIEPVGGVSPYMLLGKRIRFENGTIGVVGMEGETTEERQENVRKLSFDKLFIDIGANSREEAQKMCPIGSFGVYDSGFVEVSGKYVSKAMDDRIGCAVIVEVFKRIKPAVTLYGVFSVQEEVGLVGASVAGYGVPADEAIAIDVTDSADTPKAIKRHAMRLSGGPALKVKDRASISSKRILENLIEIAEKFDIKYQMEVLTFGGTNAMGYQRTREGIPSATVSIPTRYVHSPSEMIAPDDVEATVDLLIRYLGA” reads “soluble”; that for “MTSPSSDEDIIDIRVIKEEPESEPDSEAEPATTTNSTDSEDSVEQENKKLLETEKNRKREQKHKMLPNGTTSGTSDTGNQVPATSSAASSVDYTAMNAQDYLPTYSNTTLNYQPYQYQTAANGLLNYNNYSQYATANQLGSNYISPANFMQGGGISPLGFTTGTTGATTAAASVATSSASAVIGRSNGRSSSTVAASPADRSYSGVSGGQGQELTIQEFETVTEKIRRHGTYGQSKPPYSYISLITMAIQKSNSRQLTLSEIYNWIMDLFPYYQNNQQRWQNSIRHSLSFNDCFVKVARSPDKPGKGSFWTLHEHCGNMFENGCYLRRQKRFKVKEREPSRKKRNANSQQLHQQQHIPKMEIKEEDPTSITTTSSLGAYSLIPQISTKKEIKEELKAVQDATAAAANLGLIDPSGTPSAVNHSQPTSVISSVGTLGTTQAQMTLNGQYASPYLYSSDFATILPQSQNFLNNTLYNTTSSYPGIDYTNGVYQNTLYSSTNPNSAANL”, “not soluble”; that for “MKIVDVLCTPGLTGFYFDDQRAIKKGAGHDGFTYTGSTVTEGFTQVRQKGESISVLLVLEDGQVAHGDCAAVQYSGAGGRDPLFLAKDFIPVIEKEIAPKLIGREITNFKPMAEEFDKMTVNGNRLHTAIRYGITQAILDAVAKTRKVTMAEVIRDEYNPGAEINAVPVFAQSGDDRYDNVDKMIIKEADVLPHALINNVEEKLGLKGEKLLEYVKWLRDRIIKLRVREDYAPIFHIDVYGTIGAAFDVDIKAMADYIQTLAEAAKPFHLRIEGPMDVEDRQKQMEAMRDLRAELDGRGVDAELVADEWCNTVEDVKFFTDNKAGHMVQIKTPDLGGVNNIADAIMYCKANGMGAYCGGTCNETNRSAEVTTNIGMACGARQVLAKPGMGVDEGMMIVKNEMNRVLALVGRRK”, “soluble”.

For “MSLDNGIELPGVSFWGGNILQDTDGKYHLFVCGWPEDSPKGHMFWSNSTVFHAVSDRLEGPFKIQNSVGKGHNPEAFQLKDGRVVVYVIDGYYIADGVDSKVWTYGKFSFDSRDRKIIEGLSNLTFARRQDDSYLMVCRGGGVWISKDGLSPYMQLTDKRVYPDVEGRFEDPVVWRDELQYHLIVNDWLGRIAFYQRSKDGVHWVTEQGEAYVPGVSFHKDGAVEHWFKYERPKVFQDEKGRAVQMNFAVIDTIKWNDLPNEGHHHHHH”, the “soluble on expression in E. coli” value is listed as “not soluble”. The result for “MRQKTIREISVAWKEYKQPYVKQSTMAAYVLILENHILPNFGESDTLHEQAVQDFVLRKIENGLSVKSVKDILIVLKMVMKFGVKNEWMDYQEWDIKYPSSSTTKELEVLSVANHKKILNHIQNHFSFTGLGIYISLCTGLRIGEVCALKWSDINVSEGTITVNRTIERIYIIDGTKKHTELVINTPKTQNSCREIPMTKELLAMVKPLKKVVNEDFYVLTNDEYPTEPRTYRNYYGKLM” reads “not soluble”; that for “MIKLAPAGLKDDIEMRKVYAGFIAGQIEAGSPIIALEADLMSSMAMDSVARDYPQHVINCGIMEANVIGTAAGLALTGRKPFVHTFTAFASRRCFDQLFMALDYQRNNVKVIASDAGVTACHNGGTHMSFEDMGIVRGLAHSVVLEVTDAVMFADILRQLMDLDGFYWLRTIRKQARSIYAPGSTFTIGKGNVLREGDDITLIANGIMVAEALEAARQLEQEGVSAAVIDMFTLKPIDRMLVKNYAEKTRRIVTCENHSIHNGLGSAVAEVLVENCPVPMRRVGVKERYGQVGTQDFLQKEYGLTAEAIVEAAKSLL”, “not soluble”; that for “MSLGAQTLEYWVYSDFAQGEALALQQDFIKEFQESHPGVTVNIVGKGDDDLTAGQIAGAASGNLPDVFMNAVGVGAQLVDVGALANIHDKWMAMPEEFRAQFNKGAVENCAPRPEEMYCIPYTGYGTLLFRNLTVLEEAGIDTSAPPADWADWLAQMEKVKAAGKFAIPDQALVFNSIAEMYGVTGDVSTWGIDWESKTTRIDPAVMTSVLEKFVAMQPLTSGTSRNDQATKDLFVTNQLAFHTIGPWVNPTYVEAVENSGLKYDFVLMPGETADKHGGIKNFEIVGVAPGENLDLAFEFATYITAKEQMARWAKLLSRYNSNDAAMAEADVAALPLVARSVAAVEVTMDVSPPYLIQPVPACYQSTVVDYVSATADGEFTPEEGAAEMIAELNDCLAGEGHHHHHH”, “soluble”. With “MGSDKIHHHHHHMDKLQRISEAIKSKKKLVVMFSGGVDSTLLAKLAREVLGKNAVALTIDSPVIPRKEIEEAKNLANLIGIRHEFIELNELKSRHLIENPPDRCYLCRKLRDNIVKNWARENGFDVIADGLNFSDLQDYRPGVKASTEDGIWHPFIDFEVTKEEIREYSKKLGLPTWDKPAMACLCSRFPYGFGLNEERVRMVEKAENFLRELGFREVRVRFFPYKTAVVEVGRDEMELLMGKRTDIVLALQKIGFSFVTLDLEGFASGKLNRTIEGMSK”, the “soluble on expression in E. coli” value is listed as “not soluble”. For “MSKQQPTQFINPETPGYVGFANLPNQVHRKSVKKGFEFTLMVVGESGLGKSTLINSLFLTDLYPERVIPGAAEKIERTVQIEASTVEIEERGVKLRLTVVDTPGYGDAINCRDCFKTIISYIDEQFERYLHDESGLNRRHIIDNRVHCCFYFISPFGHGLKPLDVAFMKAIHNKVNIVPVIAKADTLTLKERERLKKRILDEIEEHNIKIYHLPDAESDEDEDFKEQTRLLKASIPFSVVGSNQLIEAKGKKVRGRLYPWGVVEVENPEHNDFLKLRTMLITHMQDLQEVTQDLHYENFRSERLKRGGRKVENEDMNKDQILLEKEAELRRMQEMIARMQAQMQMQMQGGDGDGGALGHHV” the value was “soluble”. The result for “MAYSKIRQPKLSDVIEQQLEFLILEGTLRPGEKLPPERELAKQFDVSRPSLREAIQRLEAKGLLLRRQGGGTFVQSSLWQSFSDPLVELLSDHPESQYDLLETRHALEGIAAYYAALRSTDEDKERIRELHHAIELAQQSGDLDAESNAVLQYQIAVTEAAHNVVLLHLLRCMEPMLAQNVRQNFELLYSRREMLPLVSSHRTRIFEAIMAGKPEEAREASHRHLAFIEEILLDRSREESRRERSLRRLEQRKN” reads “soluble”; that for “SSNAKFDQFSSDFQTFNAKFDQFSNDMNAFRSDFQAFKDDFARFNQRFDNFATKYR”, “soluble”; that for “MDQNIPCQFFSFENTALAVRHRKGHCFPGLVWLSGYQSDMLGSKAMLVDNFAQKNDLSCLRFDYSGHGESEGDFFQGTISRWVKESLAIFETYCEGPQILIGSSMGGWIALKLAMMLAQKNKRLAGMVLVAPAPDFTQTLVEPKLGLEEWKILEEKGYIERPAVGDEEPMPFTKGLIEDGRDNCVMKGCLDIGCPIHILQGMEDDKIPYQHTLTLMNHLPLHDVTLTLVRDADHRFSRPQDLECLETVLSILIDRINAG”, “not soluble”.
